Kd data for one molecule are collected here from article PMC8236918, “CYRI-A limits invasive migration through macropinosome formation and integrin uptake regulation” (The Journal of Cell Biology, 2021).

The experiment has as its target untagged full-length RAC1 Q61L (UniProt P63000 1-192, Q61L). Nature of the experiment: SPR; MBP-tagged CYRI immobilised on Sensor chip CM5; purified untagged RAC1 Q61L titrated at different concentrations; steady-state responses fitted to a 1:1 binding model. Conditions: both partners purified.

B1: MBP-tagged full-length CYRI-B (natural protein)
chain: MGNLLKVLTCTDLEQGPNFFLDFENAQPTESEKEIYNQVNVVLKDAEGILEDLQSYRGAGHEIREAIQHPADEKLQEKAWGAVVPLVGKLKKFYEFSQRLEAALRGLLGALTSTPYSPTQHLEREQALAKQFAEILHFTLRFDELKMTNPAIQNDFSYYRRTLSRMRINNVPAEGENEVNNELANRMSLFYAEATPMLKTLSDATTKFVSENKNLPIENTTDCLSTMASVCRVMLETPEYRSRFTNEETVSFCLRVMVGVIILYDHVHPVGAFAKTSKIDMKGCIKVLKDQPPNSVEGLLNALRYTTKHLNDETTSKQIRSMLQ
notes: CYRI-B (encoded by FAM49B), full length; source: E. coli BL21, purified (MBPTrap HP, size-exclusion chromatography)
Broadly, the Kd is the constant that tells how readily two partners part at equilibrium. Read a high Kd as lower affinity. B1 yielded a Kd of around 38 µM.
